The results in this text go back to patent publication US20260250318A1, “COMPOSITIONS AND METHODS FOR CROSSING THE BLOOD BRAIN BARRIER” (VOYAGER THERAPEUTICS, INC., priority 2022, published 2026).

Like-named read-outs stand apart in the source and are kept apart here.

Experiment [1] concerns brain. Nature of the experiment: Second cross-species screen, passage 2 in C57Bl/6 mice after first passage in NHPs. The settings on record: P2 in C57Bl/6 after first passage in NHPs. It counts as in vivo. Here is the method: (§1) A second cross-species evolution screen was performed using an AAV capsid variant library with a modification in loop IV introduced as described above and passaging it once through NHPs (passage 1) and then subsequently injected it into two different strains of mice (passage 2), C57Bl/6 and BALB/c. The fold-enrichment for each variant in the brain of each mouse species was calculated by systematic NGS enrichment analysis following RNA recovery and RT-PCR amplification. The fold enrichment values in the second passage in mice were compared to those fold enrichment values from the second pass that was performed in NHPs as described above. […] Further, 10 of these 12 variants comprised the SPH motif and a positive residue in one of the next three subsequent residues (Table 10).

Experiment [2] has as its system HEK 293T cells transfected with pCMV6 negative control. Type of experiment: cell-based. As to conditions: for Luciferase Activity (fold change relative to pCMV6 transfected cells): pCMV6 transfected cells (negative control, reference); for Luciferase Activity (RLU): Table 30, pCMV6 transfected cells. The protocol: Briefly, a transduction assay was performed in that HEK 293T cells were transfected via calcium phosphate transfection with a plasmid expressing ALPL, an AAVR positive control, or a pCMV6 negative control (250 ng or 500 ng of plasmid). AAVR is a universal AAV entry factor involved in AAV transduction. […] At 24-hours post-transduction, GFP expression and luciferase activity were measured to quantify and observe AAV cellular transduction. […] The TTM-002, TTM-006, TTM-018, and TTM-019 capsid variants all comprised the SPH motif immediately subsequent to position 455, numbered relative to SEQ ID NO: 138 and a positive residue in one of the next three residues subsequent to the SPH motif.
Three isoforms of ALPL exist, isoform 1 (Alkaline phosphatase, placental-like 2 (ALPPL2), NM_031313, which is incorporated by reference herein), isoform 2 (alkaline phosphatase, placental (ALPP), NM_001632, which is incorporated by reference herein), and isoform 3 (alkaline phosphatase, intestinal (ALPLI), NM_001631, which is incorporated by reference herein), that can also be expressed on cell surfaces via a GPI-anchor. […] The transduction assay described above was repeated with the three isoforms. HEK 293T cells were transfected via calcium phosphate transfection with a plasmid expressing ALPL, isoform 1 of ALPL, isoform 2 of ALPL, isoform 3 of ALPL, an AAVR positive control, or a pCMV6 negative control. At 24 hours post-transfection, the HEK 293T cells expressing the ALPL receptor were transduced with an AAV particle comprising the TTM-001 capsid variant or the TTM-002 capsid variant, expressing a Luc2-GFP payload. At 24-hours post-transduction, luciferase activity (RLU) was measured to quantify AAV cellular transduction.
(§2) To determine if deletion of the endoplasmic reticulum (ER) localization signal of ALPL affected transduction of the TTM-001 and TTM-002 capsid variants, HEK 293T cells were transfected via calcium phosphate transfection with a plasmid expressing ALPL, ALP with a deletion of the ER localization signal (ALPL transcript variant 2 that lacks the ER signal (NM_001127501, which is incorporated by reference herein)), or a pCMV6 negative control. At 24 hours post-transfection, the HEK 293T cells expressing the ALPL receptor were transduced with an AAV particle comprising the TTM-001 capsid variant, the TTM-002 capsid variant, or an AAV9 capsid control, expressing a GFP payload. At 24-hours post-transduction, luciferase activity (RLU) was measured to quantify AAV cellular transduction. Data was normalized to fold change in luciferase activity (RLU) compared to the pCMV6 control.
To determine if the TTM-001 and TTM-002 capsid variants could bind to both the human ALPL protein (NM_000478.6, which is incorporated by reference herein) and the mouse ALPL ortholog (NM_001287172.1, which is incorporated by reference herein), HEK 293T cells were transfected via calcium phosphate transfection with a plasmid expressing human ALPL, the murine ortholog of ALPL, or a pCMV6 negative control. At 24 hours post-transfection, the HEK 293T cells expressing the ALPL receptor were transduced with an AAV particle comprising the TTM-001 capsid variant, the TTM-002 capsid variant, or an AAV9 control capsid protein, expressing a Luc2-GFP payload. At 24-hours post-transduction, luciferase activity (RLU) was measured to quantify AAV cellular transduction.
AAV entry factor involved in AAV transduction), or a pCMV6 negative control.

In experiment [3] the target is T1, ALPL transcript variant 2 that lacks the ER signal (Homo sapiens, UniProt P05186).
T1 construct: expressed in transfected cells; host or cells: HEK 293T
T1 sequence (P05186 1-469 isoform P05186-3): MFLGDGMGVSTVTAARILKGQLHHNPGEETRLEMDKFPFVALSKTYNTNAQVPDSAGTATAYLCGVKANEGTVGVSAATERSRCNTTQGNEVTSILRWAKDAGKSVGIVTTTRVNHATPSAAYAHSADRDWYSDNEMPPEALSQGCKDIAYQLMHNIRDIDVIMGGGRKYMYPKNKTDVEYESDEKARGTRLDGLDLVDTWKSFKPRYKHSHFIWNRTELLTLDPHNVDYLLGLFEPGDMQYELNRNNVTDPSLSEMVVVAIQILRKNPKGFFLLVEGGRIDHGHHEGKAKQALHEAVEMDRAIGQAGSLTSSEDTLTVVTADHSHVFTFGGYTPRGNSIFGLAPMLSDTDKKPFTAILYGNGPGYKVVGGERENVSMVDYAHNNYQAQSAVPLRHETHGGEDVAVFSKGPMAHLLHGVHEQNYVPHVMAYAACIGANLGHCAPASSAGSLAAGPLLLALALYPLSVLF
Nature of the experiment: Transduction assay in HEK 293T cells expressing ALPL with deletion of the ER localization signal. As to conditions: luciferase, relative to pCMV6. It counts as cell-based. The protocol: as §2

The test system of experiment [4] is brain. Nature of the experiment: Second cross-species screen, passage 2 in BALB/c mice after first passage in NHPs. Type of experiment: in vivo. The protocol:
as §1

[5] abbreviates: Table 33, Cells transfected with pCMV6 (reference).
[6] abbreviates: Table 34, Cells transfected with pCMV6 (reference).

B1: TTM-001: AAV9 capsid variant comprising SPHSKA (SEQ ID NO: 941) in loop IV (protein)
chain 1: MAADGYLPDWLEDNLSEGIREWWALKPGAPQPKANQQHQDNARGLVLPGYKYLGPGNGLDKGEPVNAADAAALEHDKAYDQQLKAGDNPYLKYNHADAEFQERLKEDTSFGGNLGRAVFQAKKRLLEPLGLVEEAAKTAPGKKRPVEQSPQEPDSSAGIGKSGAQPAKKRLNFGQTGDTESVPDPQPIGEPPAAPSGVGSLTMASGGGAPVADNNEGADGVGSSSGNWHCDSQWLGDRVITTSTRTWALPTYNNHLYKQISNSTSGGSSNDNAYFGYSTPWGYFDFNRFHCHFSPRDWQRLINNNWGFRPKRLNFKLFNIQVKEVTDNNGVKTIANNLTSTVQVFTDSDYQLPYVLGSAHEGCLPPFPADVFMIPQYGYLTLNDGSQAVGRSSFYCLEYFPSQMLRTGNNFQFSYEFENVPFHSSYAHSQSLDRLMNPLIDQYLYYLSKTINGSGSPHSKAQNQQTLKFSVAGPSNMAVQGRNYIPGPSYRQQRVSTTVTQNNNSEFAWPGASSWALNGRNSLMNPGPAMASHKEGEDRFFPLSGSLIFGKQGTGRDNVDADKVMITNEEEIKTTNPVATESYGQVATNHQSAQAQAQTGWVQNQGILPGMVWQDRDVYLQGPIWAKIPHTDGNFHPSPLMGGFGMKHPPPQILIKNTPVPADPPTAFNKDKLNSFITQYSTGQVSVEIEWELQKENSKRWNPEIQYTSNYYKSNNVEFAVNTEGVYSEPRPIGTRYLTRNL
chain 2: GSGSPHSKAQNQQT
For B1, the “Fold enrichment over AAV9 in C57Bl/6 P2” value in the experiment with brain [1] was 14.48 fold. Further, in experiment [2] (Table 27), the “Luciferase Activity (fold change relative to pCMV6 transfected cells)” value is 1 fold. Besides, in experiment [2], the “Luciferase Activity (RLU)” value is reported as 5,212 RLU. Also, the “Fold change in luciferase activity relative to the pCMV6 control cells” value in experiment [2] (setting [5]) and in experiment [2] (setting [6]) was 1 fold in each case. Moreover, in experiment [3], the “increase in transduction in cells expressing ALPL with deleted ER localization signal” value is “did not occur”. Moreover, the “Fold enrichment over AAV9 in BALB/c P2” value with brain [4] is listed as 44.58 fold.

B2: TTM-002: AAV9 capsid variant comprising HDSPHK (SEQ ID NO: 2) in loop IV (protein)
chain 1: MAADGYLPDWLEDNLSEGIREWWALKPGAPQPKANQQHQDNARGLVLPGYKYLGPGNGLDKGEPVNAADAAALEHDKAYDQQLKAGDNPYLKYNHADAEFQERLKEDTSFGGNLGRAVFQAKKRLLEPLGLVEEAAKTAPGKKRPVEQSPQEPDSSAGIGKSGAQPAKKRLNFGQTGDTESVPDPQPIGEPPAAPSGVGSLTMASGGGAPVADNNEGADGVGSSSGNWHCDSQWLGDRVITTSTRTWALPTYNNHLYKQISNSTSGGSSNDNAYFGYSTPWGYFDFNRFHCHFSPRDWQRLINNNWGFRPKRLNFKLFNIQVKEVTDNNGVKTIANNLTSTVQVFTDSDYQLPYVLGSAHEGCLPPFPADVFMIPQYGYLTLNDGSQAVGRSSFYCLEYFPSQMLRTGNNFQFSYEFENVPFHSSYAHSQSLDRLMNPLIDQYLYYLSKTINGHDSPHKSGQNQQTLKFSVAGPSNMAVQGRNYIPGPSYRQQRVSTTVTQNNNSEFAWPGASSWALNGRNSLMNPGPAMASHKEGEDRFFPLSGSLIFGKQGTGRDNVDADKVMITNEEEIKTTNPVATESYGQVATNHQSAQAQAQTGWVQNQGILPGMVWQDRDVYLQGPIWAKIPHTDGNFHPSPLMGGFGMKHPPPQILIKNTPVPADPPTAFNKDKLNSFITQYSTGQVSVEIEWELQKENSKRWNPEIQYTSNYYKSNNVEFAVNTEGVYSEPRPIGTRYLTRNL
chain 2: GHDSPHKSGQNQQT
Regarding B2, the “Fold enrichment over AAV9 in C57Bl/6 P2” value with brain [1] was 27.15 fold. The “Luciferase Activity (fold change relative to pCMV6 transfected cells)” value in experiment [2] (Table 27) and in experiment [2] (Table 28) was 1 fold each time. For the same molecule, the “Luciferase Activity (RLU)” value in experiment [2] is listed as 2,894 RLU. In addition, the “Fold change in luciferase activity relative to the pCMV6 control cells” value came to 1 fold in experiment [2] (setting [5]); 1 fold in experiment [2] (setting [6]); 1.0 fold in experiment [2] (Table 35, Receptor pCMV6 (reference)). Besides, the “increase in transduction in cells expressing ALPL with deleted ER localization signal” value in experiment [3] is on record as “did not occur”. Also, in the experiment on brain [4], the “Fold enrichment over AAV9 in BALB/c P2” value turned out to be 59.14 fold.
